In patent publication US20160264649A1:

Key:
Test in all cases: cell-based or functional assay
[1] = target: HIV-1 Env of isolate MGRM-D-026 (subtype D) (HIV-1)
[2] = target: HIV-1 Env of pseudovirus isolate MGRM-G-024 (subtype G) (HIV-1)
[3] = target: HIV-1 Env of isolate 92UG114 (subtype D) (HIV-1)
[4] = target: HIV-1 Env of isolate 92UG001 (subtype D) (HIV-1)
[5] = target: HIV-1 Env of isolate MGRM-D-019 (subtype D) (HIV-1)
[6] = target: HIV-1 Env of isolate MGRM-F1-017 (subtype F) (HIV-1)
[7] = target: HIV-1 Env of pseudovirus isolate MGRM-G-017 (subtype G) (HIV-1)
[8] = target: HIV-1 Env of pseudovirus isolate MGRM-G-027 (subtype G) (HIV-1)
[9] = target: HIV-1 Env of isolate MGRM-D-021 (subtype D) (HIV-1)
[10] = target: HIV-1 Env of isolate MGRM-D-002 (subtype D) (HIV-1)
[11] = target: HIV-1 Env of isolate 92UG046 (subtype D) (HIV-1)
[12] = target: HIV-1 Env of isolate 92UG024 (subtype D) (HIV-1)
[13] = target: HIV-1 Env of pseudovirus isolate MGRM-G-016 (subtype G) (HIV-1)
[14] = target: HIV-1 Env of isolate MGRM-D-011 (subtype D) (HIV-1)
[15] = target: HIV-1 Env of isolate MGRM-F1-023 (subtype F) (HIV-1)
[16] = target: HIV-1 Env of isolate MGRM-F1-006 (subtype F) (HIV-1)
[17] = target: HIV-1 Env of isolate 92UG005 (subtype D) (HIV-1)
[18] = target: HIV-1 Env of isolate MGRM-F1-021 (subtype F) (HIV-1)
[19] = target: HIV-1 Env of pseudovirus isolate MGRM-G-013 (subtype G) (HIV-1)
[20] = target: HIV-1 Env of isolate MGRM-D-013 (subtype D) (HIV-1)
[21] = target: envelope of aMLV pseudovirus (negative control)
[22] = target: HIV-1 Env of pseudovirus isolate MGRM-G-004 (subtype G) (HIV-1)
[23] = target: HIV-1 Env of isolate MGRM-F1-004 (subtype F) (HIV-1)
[24] = target: HIV-1 Env of pseudovirus isolate MGRM-G-015 (subtype G) (HIV-1)
[25] = target: HIV-1 Env of pseudovirus isolate MGRM-G-028 (subtype G) (HIV-1)
[26] = target: HIV-1 Env of isolate MGRM-D-022 (subtype D) (HIV-1)
[27] = target: HIV-1 Env of isolate MGRM-D-001 (subtype D) (HIV-1)
[28] = target: HIV-1 Env of isolate MGRM-D-005 (subtype D) (HIV-1)
[29] = target: HIV-1 Env of isolate MGRM-D-018 (subtype D) (HIV-1)
[30] = target: HIV-1 Env of isolate MGRM-D-016 (subtype D) (HIV-1)
[31] = target: HIV-1 Env of isolate MGRM-D-003 (subtype D) (HIV-1)
[32] = target: HIV-1 Env of isolate MGRM-D-029 (subtype D) (HIV-1)
[33] = target: HIV-1 Env of pseudovirus isolate MGRM-G-025 (subtype G) (HIV-1)
[34] = target: HIV-1 Env of isolate MGRM-F1-022 (subtype F) (HIV-1)
[35] = target: HIV-1 Env of isolate 98CN006 (subtype CRF08_BC) (HIV-1)
[36] = target: HIV-1 Env of pseudovirus isolate MGRM-G-006 (subtype G) (HIV-1)
[37] = target: HIV-1 Env of pseudovirus isolate MGRM-G-011 (subtype G) (HIV-1)
[38] = target: HIV-1 Env of isolate MGRM-D-014 (subtype D) (HIV-1)
[39] = target: HIV-1 Env of isolate MGRM-D-024 (subtype D) (HIV-1)
[40] = target: HIV-1 Env of pseudovirus isolate MGRM-G-009 (subtype G) (HIV-1)
[41] = target: HIV-1 Env of isolate MGRM-F1-018 (subtype F) (HIV-1)
[42] = target: HIV-1 Env of pseudovirus isolate MGRM-G-019 (subtype G) (HIV-1)
[43] = target: HIV-1 Env of isolate MGRM-D-020 (subtype D) (HIV-1)
[44] = target: HIV-1 Env of isolate 98CN009 (subtype CRF07_BC) (HIV-1)
[45] = target: HIV-1 Env of isolate MGRM-F1-015 (subtype F) (HIV-1)
[46] = target: HIV-1 Env of isolate MGRM-F1-016 (subtype F) (HIV-1)
[47] = target: HIV-1 Env of isolate MGRM-D-008 (subtype D) (HIV-1)
[48] = target: HIV-1 Env of pseudovirus isolate MGRM-G-001 (subtype G) (HIV-1)
[49] = target: HIV-1 Env of isolate MGRM-D-028 (subtype D) (HIV-1)
[50] = target: HIV-1 Env of pseudovirus isolate MGRM-G-014 (subtype G) (HIV-1)
[51] = target: HIV-1 Env of isolate MGRM-F1-020 (subtype F) (HIV-1)
[52] = target: HIV-1 Env of isolate MGRM-F1-012 (subtype F) (HIV-1)
[53] = target: HIV-1 Env of isolate MGRM-F1-008 (subtype F) (HIV-1)
[54] = target: HIV-1 Env of isolate MGRM-D-012 (subtype D) (HIV-1)
[55] = target: HIV-1 Env of isolate MGRM-D-004 (subtype D) (HIV-1)
[56] = target: HIV-1 Env of isolate MGRM-F1-010 (subtype F) (HIV-1)
[57] = target: HIV-1 Env of isolate MGRM-F1-013 (subtype F) (HIV-1)
[58] = target: HIV-1 Env of isolate MGRM-F1-014 (subtype F) (HIV-1)

B1: PGT-130 (antibody, V domains shown)
VH: QVQLQESGPGLVKPAETLSLTCSVSGESINTGHYYWGWVRQVPGKGLEWIGHIHYTTAVLHNPSLKSRLTIKIYTLRNQITLRLSNVTAADTAVYHCVRSGGDILYYYEWQKPHWFSPWGPGIHVTVSS
VL: QSALTQPPSASGSLGQSVTISCNGTSSDIGGWNFVSWYQQFPGRAPRLIIFEVNKRPSGVPGRFSGSKSGNSASLTVSGLQSDDEGQYFCSSLFGRWDVVFGGGTKLTVL
IC50 (neutralization) [1]: > 50 µg/mL
IC50 [2]: 5.84 µg/mL
IC50 (neutralization) [3]: > 50 µg/mL
IC50 (neutralization) [4]: > 50 µg/mL
IC50 (neutralization) [5]: > 50 µg/mL
IC50 (neutralization) [6]: > 50 µg/mL
IC50 [7]: > 50 µg/mL
IC50 [8]: 4.14 µg/mL
IC50 (neutralization) [9]: 0.156 µg/mL
IC50 (neutralization) [10]: 0.869 µg/mL
IC50 (neutralization) [11]: > 50 µg/mL
IC50 (neutralization) [12]: > 50 µg/mL
IC50 [13]: > 50 µg/mL
IC50 (neutralization) [14]: 0.019 µg/mL
IC50 (neutralization) [15]: 0.05 µg/mL
IC50 (neutralization) [16]: > 50 µg/mL
IC50 (neutralization) [17]: 0.959 µg/mL
IC50 (neutralization) [18]: > 50 µg/mL
IC50 [19]: > 50 µg/mL
IC50 (neutralization) [20]: 0.429 µg/mL
IC50 [21]: > 50 µg/mL
IC50 [22]: > 50 µg/mL
IC50 (neutralization) [23]: 0.023 µg/mL
IC50 [24]: > 50 µg/mL
IC50 [25]: 0.074 µg/mL
IC50 (neutralization) [26]: > 50 µg/mL
IC50 (neutralization) [27]: > 50 µg/mL
IC50 (neutralization) [28]: > 50 µg/mL
IC50 (neutralization) [29]: 0.049 µg/mL
IC50 (neutralization) [30]: > 50 µg/mL
IC50 (neutralization) [31]: 0.651 µg/mL
IC50 (neutralization) [32]: > 50 µg/mL
IC50 [33]: 8.45 µg/mL
IC50 (neutralization) [34]: > 50 µg/mL
IC50 (neutralization) [35]: 0.258 µg/mL
IC50 [36]: > 50 µg/mL
IC50 [37]: > 50 µg/mL
IC50 (neutralization) [38]: 0.061 µg/mL
IC50 (neutralization) [39]: > 50 µg/mL
IC50 [40]: > 50 µg/mL
IC50 (neutralization) [41]: > 50 µg/mL
IC50 [42]: 27.9 µg/mL
IC50 (neutralization) [43]: 24.7 µg/mL
IC50 (neutralization) [44]: 0.136 µg/mL
IC50 (neutralization) [45]: > 50 µg/mL
IC50 (neutralization) [46]: > 50 µg/mL
IC50 (neutralization) [47]: > 50 µg/mL
IC50 [48]: 0.0198 µg/mL
IC50 (neutralization) [49]: 0.825 µg/mL
IC50 [50]: 2.23 µg/mL
IC50 (neutralization) [51]: 9.73 µg/mL
IC50 (neutralization) [52]: > 50 µg/mL
IC50 (neutralization) [53]: 0.065 µg/mL
IC50 (neutralization) [54]: > 50 µg/mL
IC50 (neutralization) [55]: 1.21 µg/mL
IC50 (neutralization) [56]: > 50 µg/mL
IC50 (neutralization) [57]: > 50 µg/mL
IC50 (neutralization) [58]: 11.8 µg/mL
